The values below come from patent US7981863B2, “Treatment of Parkinson's disease with PDGF” (Neuronova AB, priority 2001, dated 2011).

Assay [1] deals with Mouse Neural Stem Cells. As to the kind of experiment: Neuronal differentiation (β-III Tubulin) of adult mouse neural stem cells. Type of assay: cell-based. The following applies: 1 nM, 7 days. Here is the method:
Adult mouse neurosperes were dissociated with trypsin (Gibco) into single cells and transferred to poly-D-Lysine plates (BD) in the above culture medium, without growth factors, supplemented with 1% Fetal Calf Serum (Gibco). The cells were incubated over night to adhere to the plate. The medium was changed to culture medium, without growth factors, supplemented with 1 nM PDGF-AA or PDFG-BB (both from R&D Systems). The medium with new substance added every second day. The cells were incubated for a total of 7 days.
The cells were washed two times with PBS (Gibco) and fixed for 15 min RT with 4% Formaldehyde (Sigma) and permeabilized 20 min RT in 0.1% Triton X-100 (Sigma) in PBS. After fixation and permeabilization the cells were labelled with mouse monoclonal anti-β-III Tubulin (1:500 Promega). Primary antibody was visualized with anti mouse Texas-Red (1:100 Vector Laboratories). All antibodies were diluted in PBS with 0.1% Triton X-100.
The cells were washed twice with PBS (Gibco) and lysed with 200 ul lysis buffer/well. The lysis buffer contained PBS, 0.1% Triton X-100, 1 mM EDTA and 1 tab1. Protease inhibitor cocktail (Roche). The samples were run on a 4-12% Bis-Tris gel (Novex) under reduced conditions with MOPS buffer (Novex) and blotted onto a Hybond ECL nitrocellulose membrane (Amersham Biotech). Blocked in 5% ECL-Block (Amersham Biotech) in PBS+0.1% Tween 20 (Sigma). The membranes were labelled with mouse monoclonal anti-β-III Tubulin (1:5000 Promega). The primary antibody was detected using a secondary antibody anti-mouse-HRP (1:10000 Amersham Biotech) and ECL Plus+ Western Blot Detection Kit (Amersham Biotech). All antibodies were diluted in PBS with 0.1% Triton X-100, 1% ECL Block. The signal were then captured on ECL Hyper Film (Amersham Biotech)

Assay [2] relates to Healthy Rats. The experiment in a line: ICV infusion in healthy rats, BrdU / NeuN labelling. Type of assay: in vivo, rat. Here is the method: Male rats (12 hours light/dark regime; feeding and drinking ad libitum; 5 animals in standard cage) were infused (Alzet minipumps) in the left lateral ventricle with human recombinant PDGF-BB for 7 days at a daily dose of 36 ng/day (8 animals/group). Human recombinant BDNF (brain derived neurotrophic factor) was used as a positive control (Pencea V et al., J. Neurosci Sep. 1 (2001), 21(17):6706-17). Bromodeoxyuridine (BrdU) was also included in the infusion vehicle (artificial cerebrospinal fluid) to enable measurement of proliferation by quantitation of BrdU incorporation in the DNA. Animals were sacrificed at 7 (proliferation) or 28 days (neurogenesis) after start of treatment and brains were dissected and prepared for sectioning and immunohistochemistry (Pencea V et al., J. Neurosci Sep. 1 (2001), 21(17):6706-17).
Proliferation was measured by BrdU incorporation and diaminobenzidine (DAB) staining of HRP conjugated secondary antibodies (FIG. 7). Cells were counted in a phase contrast microscope. Neural phenotype was assessed by staining for neuronal marker NeuN by immunocytochemistry using a fluorescence readout. The secondary antibodies were labeled with FITC or Alexa Fluor568. In double staining analyses designed to measure neurogenesis, BrdU and NeuN were quantitated by fluorescence (above) and counting of cells was done in a confocal microscope. For further experimental details, see Pencea V et al., J. Neurosci Sep. 1 (2001), 21(17):6706-17. A number of brain regions were analysed.

Assay [3] has as its system cultured, non-adherent mouse neurospheres. As to the kind of experiment: Intracellular ATP assay, proliferation of cultured mouse neurospheres. The format is cell-based. As to conditions: growth media supplemented with B27; 1 nM-0.0005 nM; 3 days of treatment; FIG. 1. How it is done: The anterior lateral wall of the lateral ventricle of 5-6 week old mice was enzymatically dissociated in 0.8 mg/ml hyaluronidase and 0.5 mg/ml trypsin in DMEM containing 4.5 mg/ml glucose and 80 units/ml DNase at 37° C. for 20 min. The cells were gently triturated and mixed with three volumes of Neurosphere medium (DMEM/F12, B27 supplement, 125 mM HEPES pH 7.4) containing 20 ng/ml EGF (unless otherwise stated), 100 units/ml penicillin and 100 μg/ml streptomycin. After passing through a 70 μm strainer, the cells were pelleted at 160×g for 5 min. The supernatant was subsequently removed and the cells resuspended in Neurosphere medium supplemented as above, plated out in culture dishes and incubated at 37° C. Neurospheres were ready to be split approximately 7 days after plating.
To split the neurospheres, cells were collected by centrifugation at 160×g for 5 min. The conditioned supernatant (conditioned medium) was removed and saved. The neurospheres were resuspended in 0.5 ml Trypsin/EDTA in HBSS (1×), incubated at 37° C. for 2 min and triturated gently to aid dissociation. Following a further 3 min incubation at 37° C. and trituration, 3 volumes of ice cold Neurosphere medium medium w/o EGF were added to stop further trypsin activity. […]
After 3 days of treatment, intracelluar ATP was measured using the ATP SL kit (Biothema) according to the manufacturer's instructions.

B1: PDGF-BB: human recombinant PDGF-BB, platelet derived growth factor B-chain homodimer (protein)
chain: SLGSLTIAEPAMIAECKTRTEVFEISRRLIDRTNANFLVWPPCVEVQRCSGCCNNRNVQCRPTQVQLRPVQVRKIEIVRKKPIFKKATVTLEDHLACKCETVAAARPVT
On to B1, for which, in assay [1] (compared to the control, FIG. 5), the “number of β-III Tubulin positive cells in culture” value is reported as “significantly increase the number of β-III Tubulin positive cells”. In assay [1] (compared with the control, FIG. 6), the “levels of β-III Tubulin protein (Western blot)” value was “significantly increased levels of β-III Tubulin protein”. Also, the “neuronal differentiation of cultured mouse neural stem cells/progenitors” value in assay [1] (FIG. 5 and FIG. 6) is reported as “trigger neuronal differentiation”. For the same molecule, the “Cell count (BrdU, proliferation) along the lateral ventricle wall” value in assay [2] (7-day group, ICV infusion 7 days, 36 ng/day, mean of two sections, mean +/- sem) was 216 +/−25. For the same molecule, the “number of proliferating cells in the subventricular zone” value in assay [2] (28-day group) was “no such statistically significant effect”. Also, the “neurogenesis in the striatum” value in assay [2] (28-day group, in comparison to vehicle treated animals) is recorded as “significantly increase neurogenesis”. Moreover, the “BrdU positive cells in the dentate gyrus, the CA1 and the alveus” value in assay [2] (28-day group, in comparison to vehicle-treated animals) is listed as “no significant effect”. Moreover, the “BrdU positive cells in the striatum” value in assay [2] (28-day group, cells counted in 300 × 300 μm squares) is 40 ± 6.8 (p < 0.01 to vehicle, ANOVA). Also, in assay [3], the “proliferative effect (intracellular ATP)” value is on record as “concentration dependent proliferative effect”.
